Test results reported in publication PMC11127761.

Columns and labels:
Assay in all cases: electrochemical aptasensor (IPA 500 Hz, flow cell)
Settings in all cases: 1-1000 pg/mL; NPY signal about 10x higher; 5' thiol C6 (disulfide reduced), 3' amino linker; aCSF pH 7.4 (composition by citation); SWV -0.4 to 0.0 V, 30 Hz; IPA 500 Hz in flow cell; assay temperature not stated
Somatostatin (SOM) = molecular target: T1, Somatostatin (SOM) (UniProt P61278)
T1 sequence: AGCKNFFWKTFTSC

Peptide YY (PYY) = Peptide YY (PYY) (UniProt P10082)
[1] = molecular target: T2, Pancreatic polypeptide (PP) (UniProt P01298)
T2 sequence: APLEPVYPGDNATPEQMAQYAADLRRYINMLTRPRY

Measured: binding signal (fraction of NPY signal)

Peptide YY (PYY), sequence (P10082 29-64): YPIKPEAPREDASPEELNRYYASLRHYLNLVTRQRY

AGCAGCACAGAGGTCAGATGCAAACCACAGCCTGAGTGGTTAGCGTATGTCATTTACGGACCTATGCGTGCTACCGTGAA [Aptamer 4.31]
0.1: all assays above
